In PMC8329713, “The identification and structural analysis of potential 14-3-3 interaction sites on the bone regulator protein Schnurri-3” (Acta Crystallographica. Section F, Structural Biology …, 2021):
Non-standard residues stand in square brackets, D forms with d. No end group written: not given here. *: point of attachment. FITC = O=C1OC2(c3ccc(O)cc3Oc3cc(O)ccc32)c2ccc(NC(=S)*)cc21; pS = N[C@@H](COP(=O)(O)O)C(=O)O; Ahx = NCCCCCC(=O)O

Legend:
14-3-3σ (full length) [1] = molecular target: T1, 14-3-3σ (full length) (human, UniProt P31947 1-248); experiment: fluorescence polarisation; 14-3-3 isoforms (full length) serially diluted twofold in the presence of 10 nM FITC-labelled peptide; 50 mM Tris pH 7.5, 150 mM NaCl, 5 mM MgCl2, 0.05% Tween-20 (no reducing agent listed); one-site specific binding model; conditions: both partners purified
T1 construct: 14-3-3 protein sigma, human, full length; Expressed from a pPRoeX-Htb vector; also called 14-3-3 isoform σ; the σ isoform; source: E. coli NiCo21(DE3), purified (nickel column, TEV cleavage, second nickel column, SEC)
T1 sequence (looked up): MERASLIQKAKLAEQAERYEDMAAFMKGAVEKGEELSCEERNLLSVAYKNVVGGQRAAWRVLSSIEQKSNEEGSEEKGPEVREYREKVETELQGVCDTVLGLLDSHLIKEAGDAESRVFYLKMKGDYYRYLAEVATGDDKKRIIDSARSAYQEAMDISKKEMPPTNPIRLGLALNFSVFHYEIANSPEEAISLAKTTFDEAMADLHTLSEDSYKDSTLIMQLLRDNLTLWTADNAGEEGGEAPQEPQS

14-3-3τ (full length) = molecular target: T2, 14-3-3τ (full length) (human, UniProt P27348 1-245); experiment: FP
T2 chain: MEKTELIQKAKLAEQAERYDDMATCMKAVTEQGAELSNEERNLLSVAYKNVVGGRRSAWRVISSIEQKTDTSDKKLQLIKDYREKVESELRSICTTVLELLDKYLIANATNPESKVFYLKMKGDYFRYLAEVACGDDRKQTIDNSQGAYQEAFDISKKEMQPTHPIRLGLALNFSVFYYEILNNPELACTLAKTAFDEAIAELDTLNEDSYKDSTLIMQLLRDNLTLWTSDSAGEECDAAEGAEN

14-3-3ɛ (full length) = molecular target: T3, 14-3-3ɛ (full length) (human, UniProt P62258 1-255); experiment: FP
T3 chain: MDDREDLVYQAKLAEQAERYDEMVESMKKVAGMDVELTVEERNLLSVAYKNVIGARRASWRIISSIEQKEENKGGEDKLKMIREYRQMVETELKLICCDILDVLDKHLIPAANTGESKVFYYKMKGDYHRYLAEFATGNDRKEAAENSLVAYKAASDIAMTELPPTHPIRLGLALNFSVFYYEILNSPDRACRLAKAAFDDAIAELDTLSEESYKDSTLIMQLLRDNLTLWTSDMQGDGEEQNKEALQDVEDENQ

14-3-3β (full length) = molecular target: T4, 14-3-3β (full length) (human, UniProt P31946 1-246); experiment: FP
T4 chain: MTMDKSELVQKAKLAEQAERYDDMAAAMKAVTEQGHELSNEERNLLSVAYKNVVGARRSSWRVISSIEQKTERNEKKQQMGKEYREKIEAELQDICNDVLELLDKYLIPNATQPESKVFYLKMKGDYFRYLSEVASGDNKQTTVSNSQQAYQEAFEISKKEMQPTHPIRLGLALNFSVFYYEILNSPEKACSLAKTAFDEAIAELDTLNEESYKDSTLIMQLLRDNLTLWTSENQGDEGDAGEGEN

14-3-3ζ (full length) = molecular target: T5, 14-3-3ζ (full length) (human, UniProt P63104 1-245); experiment: FP
T5 chain: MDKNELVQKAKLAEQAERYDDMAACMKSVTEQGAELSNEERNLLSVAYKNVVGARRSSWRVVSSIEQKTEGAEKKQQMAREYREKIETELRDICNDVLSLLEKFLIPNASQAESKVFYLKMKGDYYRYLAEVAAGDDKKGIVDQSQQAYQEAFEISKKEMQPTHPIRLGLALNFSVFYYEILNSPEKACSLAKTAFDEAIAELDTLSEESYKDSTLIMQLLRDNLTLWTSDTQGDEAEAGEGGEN

14-3-3σ (full length) [2] = molecular target: T1, 14-3-3σ (full length); experiment: ITC; peptide titrated into the cell containing the 14-3-3 protein, 18 injections of 2 µl, 25°C; 50 mM Tris pH 7.5, 150 mM NaCl, 5 mM MgCl2, 2 mM 2-mercaptoethanol, 0.05% Tween-20 (reducing conditions); conditions: both partners purified

Kd (14-3-3σ (full length) [1]): 26 ± 2 nM | Kd (14-3-3τ (full length)): 1910 nM | Kd (14-3-3ɛ (full length)): 2510 nM | Kd (14-3-3β (full length)): 1380 nM | Kd (14-3-3ζ (full length)): 2140 nM | Kd (14-3-3σ (full length) [2]): 4.8 ± 0.8 µM
B1: SHN3pS542 peptide, N-terminally FITC-Ahx-labelled (peptide)
peptide: {FITC-Ahx}-LLRSH[pS]MPSAAC
modifications: also: phosphoserine at 542, position not mapped
notes: Schnurri-3 (SHN3, transcription factor HIVEP3), human, 12-mer around phosphorylated Ser542; also called SHN3pS542-FITC; the FITC-labelled form; source: synthetic peptide, bought: GenScript (purity >95%)
